The target of assay [1] is T1, Recombinant Human TfR Protein (R&D Systems; Catalog #2474-TR) (human, UniProt P02786 89-760).
T1 construct: Bought reagent, injected as analyte in SPR; also called hTfR1; hTFR1
In words: SPR (Biacore 8K+), I2S immobilized on CM5 by amine coupling, TfR as analyte. The procedure: (§1) Surface Plasmon Resonance (SPR) assays: Binding affinity between human/mouse receptor with Iduronate 2 Sulfatase or idursulfase (I2S) tagged with an anti-transferrin receptor binding single domain antibody (VHH) was determined using the Biacore 8K+ instrument (Cytiva; Danaher Corporation). In this experiment, samples were immobilized on a series S sensor chip CM5 (Catalog #29104988) via amine coupling. Samples immobilized (ligand) were i) I2S-VHH ii) VHH-I2S iii) I2S as negative control iv) Holo transferrin peptide as positive control. 1 ug/mL of ligand, reconstituted in Acetate pH 4.0, was immobilized on individual flow cells for 420 s, yielding a final immobilization level of approximately 350 Response Units. Recombinant Human TfR Protein (R&D Systems; Catalog #2474-TR) and Mouse TfR1 (TR06671428-001; Takeda) were injected on this surface (as analyte) with a concentration range of 5, 2.5, 1.25, 0.625 & 0.156 ug/mL. Analyte series was injected for 120 s, followed by a dissociation phase for a duration that yields at least 10% dissociation of analyte. Resulting sensograms were analyzed using the 1:1 Binding Model.
On the technique in general: In SPR one partner is held on a chip, and binding of the other changes the refractive index at the surface.

In assay [2] the target is T2, Mouse TfR1 (TR06671428-001; Takeda) (mouse, UniProt Q62351 89-763).
T2 construct: Injected as analyte in SPR; also called mTFR1; mouse transferrin receptor 1
T2 sequence (Q62351 89-763 limits assumed): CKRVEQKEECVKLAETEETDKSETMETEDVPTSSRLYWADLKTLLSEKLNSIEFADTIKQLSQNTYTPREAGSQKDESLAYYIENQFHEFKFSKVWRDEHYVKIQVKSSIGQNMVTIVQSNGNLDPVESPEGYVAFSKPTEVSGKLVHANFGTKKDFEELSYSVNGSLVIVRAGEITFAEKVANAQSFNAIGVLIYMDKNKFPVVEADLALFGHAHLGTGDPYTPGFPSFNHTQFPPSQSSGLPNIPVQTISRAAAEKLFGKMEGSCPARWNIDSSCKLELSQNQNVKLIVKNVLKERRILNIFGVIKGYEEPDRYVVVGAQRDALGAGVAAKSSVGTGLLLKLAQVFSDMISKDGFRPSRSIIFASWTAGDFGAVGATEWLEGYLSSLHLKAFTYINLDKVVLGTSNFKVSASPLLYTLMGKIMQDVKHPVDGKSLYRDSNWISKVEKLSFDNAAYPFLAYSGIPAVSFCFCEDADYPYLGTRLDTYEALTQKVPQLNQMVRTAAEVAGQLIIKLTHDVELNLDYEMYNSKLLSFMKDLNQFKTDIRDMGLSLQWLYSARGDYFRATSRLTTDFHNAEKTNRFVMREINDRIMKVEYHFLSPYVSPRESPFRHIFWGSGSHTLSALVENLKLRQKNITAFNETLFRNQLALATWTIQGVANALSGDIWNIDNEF
The assay can be described thus: SPR (Biacore 8K+), I2S immobilized on CM5 by amine coupling, TfR1 as analyte. The protocol: as §1

Consider one molecule from patent US20250213730A1 (Takeda / Millennium, published 2025).

T1 sequence (P02786 89-760 limits assumed): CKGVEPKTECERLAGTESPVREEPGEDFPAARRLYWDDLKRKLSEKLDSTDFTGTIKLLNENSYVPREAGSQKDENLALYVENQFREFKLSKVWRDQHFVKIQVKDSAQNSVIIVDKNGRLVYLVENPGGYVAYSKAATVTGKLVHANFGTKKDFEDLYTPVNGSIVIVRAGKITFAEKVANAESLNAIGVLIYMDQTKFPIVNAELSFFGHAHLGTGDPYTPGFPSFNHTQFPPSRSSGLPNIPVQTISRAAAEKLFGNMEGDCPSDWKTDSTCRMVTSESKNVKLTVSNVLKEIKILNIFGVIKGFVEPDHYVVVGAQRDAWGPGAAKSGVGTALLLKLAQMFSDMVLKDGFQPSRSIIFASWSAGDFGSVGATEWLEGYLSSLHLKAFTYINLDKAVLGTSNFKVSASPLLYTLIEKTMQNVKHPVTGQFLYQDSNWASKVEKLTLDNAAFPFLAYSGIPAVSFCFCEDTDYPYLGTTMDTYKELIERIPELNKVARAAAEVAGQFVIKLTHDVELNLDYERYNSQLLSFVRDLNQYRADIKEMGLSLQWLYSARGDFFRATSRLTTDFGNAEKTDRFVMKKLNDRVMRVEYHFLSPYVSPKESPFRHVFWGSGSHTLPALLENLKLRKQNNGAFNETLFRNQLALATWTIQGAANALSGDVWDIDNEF

B1: I2S control (untagged human iduronate-2-sulfatase, purified protein) (enzyme)
chain: SETQANSTTDALNVLLIIVDDLRPSLGCYGDKLVRSPNIDQLASHSLLFQNAFAQQAVCAPSRVSFLTGRRPDTTRLYDFNSYWRVHAGNFSTIPQYFKENGYVTMSVGKVFHPGISSNHTDDSPYSWSFPPYHPSSEKYENTKTCRGPDGELHANLLCPVDVLDVPEGTLPDKQSTEQAIQLLEKMKTSASPFFLAVGYHKPHIPFRYPKEFQKLYPLENITLAPDPEVPDGLPPVAYNPWMDIRQREDVQALNISVPYGPIPVDFQRKIRQSYFASVSYLDTQVGRLLSALDDLQLANSTIIAFTSDHGWALGEHGEWAKYSNFDVATHVPLIFYVPGRTASLPEAGEKLFPYLDPFDSASQLMEPGRQSMDLVELVSLFPTLAGLAGLQVPPRCPVPSFHVELCREGKNLLKHFRFRDLEEDPYLPGNPRELIAYSQYPRPSDIPQWNSDKPSLKDIKIMGYSIRTIDYRYTVWVGFNPDEFLANFSDIHAGELYFVDSDPLQDHNMYNDSQGGDLFQLLMP
notes: Negative control in the SPR assay; also called idursulfase; IDS
Turning to B1, the binding result in assay [1] and in assay [2] was “no binding (tested: analyte 0.156-5 ug/mL)” each time.
